B1: OKT3 scFv (scFv, V domains shown)
VH: QVQLVQSGGGVVQPGRSLRLSCKASGYTFTRYTMHWVRQAPGKGLEWIGYINPSRGYTNYNQKVKDRFTISRDNSKNTAFLQMDSLRPEDTGVYFCARYYDDHYSLDYWGQGTPVTVSS
notes: Made in E. coli; also called OKT3 scFv(コントロール); 変異導入前のOKT3 scFv; not shown: linker, VL of OKT3 (OL) and any tag
B2: OKT3 scFv-D65N/D82aN (scFv, name in Kabat numbering, V domains shown)
VH: QVQLVQSGGGVVQPGRSLRLSCKASGYTFTRYTMHWVRQAPGKGLEWIGYINPSRGYTNYNQKVKNRFTISRDNSKNTAFLQMNSLRPEDTGVYFCARYYDDHYSLDYWGQGTPVTVSS
notes: not shown: linker, VL of OKT3 (OL) and any tag
B3: OKT3 scFv-D65A/D82aN (scFv, name in Kabat numbering, V domains shown)
VH: QVQLVQSGGGVVQPGRSLRLSCKASGYTFTRYTMHWVRQAPGKGLEWIGYINPSRGYTNYNQKVKARFTISRDNSKNTAFLQMNSLRPEDTGVYFCARYYDDHYSLDYWGQGTPVTVSS
notes: as for B2

The target of the test is プロテインA (rProtein A Sepharose Fast Flow) (UniProt P38507 37-327). Briefly: rProtein A Sepharose Fast Flow column, fractions on SDS-PAGE.
In the case of B1, the binding result was “no binding”.

As to B2, the binding result was “no binding”.

As to B3, the binding result is given as “no binding”.

The record behind these values is JP2023092810A (dated 2023).
